Results on three molecules are retold here after paper PMC5669925, “Tumor-expressed immune checkpoint B7x promotes cancer progression and antigen-specific CD8 T cell exhaustion and suppressive innate immune cells” (Oncotarget, 2017).

The target of assay [1] is PD-1 on labeled cells (intercellular conjugate assay) (UniProt Q15116). In words: intercellular conjugate assay; two cell populations labeled with CFSE or Violet Cell Trace, 2 x 10^5 of each mixed in FACS buffer, 45 minutes at 37 degrees Celsius; co-localization read by FACS.
PD-1 on labeled cells (intercellular conjugate assay), sequence (Q15116 25-288): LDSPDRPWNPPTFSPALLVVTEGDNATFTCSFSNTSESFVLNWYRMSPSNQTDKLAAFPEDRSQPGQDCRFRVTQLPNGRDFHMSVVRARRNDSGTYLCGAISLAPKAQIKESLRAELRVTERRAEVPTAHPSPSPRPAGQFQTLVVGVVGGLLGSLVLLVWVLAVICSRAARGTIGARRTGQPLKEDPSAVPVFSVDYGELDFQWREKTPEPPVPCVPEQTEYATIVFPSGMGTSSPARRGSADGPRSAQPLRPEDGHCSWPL
The target of assay [2] is T1, Recombinant human NRP1 (R&D) (human, UniProt O14786 22-856).
T1 construct: Neuropilin-1 (NRP1), human; Soluble analyte in BLI; no catalogue number or tag is printed; also called Rh-NRP1; source: bought: R&D systems
T1 sequence (looked up): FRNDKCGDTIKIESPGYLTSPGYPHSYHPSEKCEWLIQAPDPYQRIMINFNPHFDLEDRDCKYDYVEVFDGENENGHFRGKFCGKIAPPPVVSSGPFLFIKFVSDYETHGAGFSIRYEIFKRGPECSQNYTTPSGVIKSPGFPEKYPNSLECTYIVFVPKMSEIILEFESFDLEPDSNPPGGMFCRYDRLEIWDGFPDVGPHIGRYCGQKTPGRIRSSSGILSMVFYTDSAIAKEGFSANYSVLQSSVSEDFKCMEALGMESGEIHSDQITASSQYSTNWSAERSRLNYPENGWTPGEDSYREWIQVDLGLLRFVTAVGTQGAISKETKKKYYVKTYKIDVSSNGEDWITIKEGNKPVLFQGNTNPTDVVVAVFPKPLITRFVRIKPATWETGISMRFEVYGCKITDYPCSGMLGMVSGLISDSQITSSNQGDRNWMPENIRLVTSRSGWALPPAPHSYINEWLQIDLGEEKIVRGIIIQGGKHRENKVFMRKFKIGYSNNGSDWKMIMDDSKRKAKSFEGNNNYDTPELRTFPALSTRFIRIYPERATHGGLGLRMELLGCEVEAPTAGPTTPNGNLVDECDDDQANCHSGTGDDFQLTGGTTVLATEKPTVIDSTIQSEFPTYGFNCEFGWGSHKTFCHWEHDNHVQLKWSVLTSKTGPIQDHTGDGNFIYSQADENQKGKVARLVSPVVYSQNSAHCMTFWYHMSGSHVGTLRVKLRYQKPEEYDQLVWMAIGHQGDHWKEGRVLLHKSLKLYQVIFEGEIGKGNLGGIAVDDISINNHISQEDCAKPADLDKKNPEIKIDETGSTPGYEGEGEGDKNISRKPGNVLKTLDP
In words: BLI; BLItz system (ForteBio); human IgG fusion protein (25 ug/mL, 2 min) captured on anti-human IgG Fc capture sensors; protein analytes in 1x Kinetic Buffer (ForteBio). Particulars: both partners purified. (In general: BLI is a label-free optical method that tracks binding on a fibre tip over time.)

Consider “PD-L1 on labeled cells (intercellular conjugate assay) (from UniProt Q9NZQ7 19-290) (ligand)”, for which the percent co-localization in assay [1] came out at 18%.

“PD-L2 on labeled cells (intercellular conjugate assay) (from UniProt Q9BQ51 20-273) (ligand)”: the percent co-localization in assay [1] was found to be 24%.

B1: Human Sema3a-hIgG1 (R&D) (Fc fusion, UniProt Q14563 21-771, looked up)
chain: NYQNGKNNVPRLKLSYKEMLESNNVITFNGLANSSSYHTFLLDEERSRLYVGAKDHIFSFDLVNIKDFQKIVWPVSYTRRDECKWAGKDILKECANFIKVLKAYNQTHLYACGTGAFHPICTYIEIGHHPEDNIFKLENSHFENGRGKSPYDPKLLTASLLIDGELYSGTAADFMGRDFAIFRTLGHHHPIRTEQHDSRWLNDPKFISAHLISESDNPEDDKVYFFFRENAIDGEHSGKATHARIGQICKNDFGGHRSLVNKWTTFLKARLICSVPGPNGIDTHFDELQDVFLMNFKDPKNPVVYGVFTTSSNIFKGSAVCMYSMSDVRRVFLGPYAHRDGPNYQWVPYQGRVPYPRPGTCPSKTFGGFDSTKDLPDDVITFARSHPAMYNPVFPMNNRPIVIKTDVNYQFTQIVVDRVDAEDGQYDVMFIGTDVGTVLKVVSIPKETWYDLEEVLLEEMTVFREPTAISAMELSTKQQQLYIGSTAGVAQLPLHRCDIYGKACAECCLARDPYCAWDGSACSRYFPTAKRRTRRQDIRNGDPLTHCSDLHHDNHHGHSPEERIIYGVENSSTFLECSPKSQRALVYWQFQRRNEERKEEIRVDDHIIRTDQGLLLRSLQQKDSGNYLCHAVEHGFIQTLLKVTLEVIDTEHLEELLHKDDDGDGSKTKEMSNSMTPSQKVWYRDFMQLINHPNLNTMDEFCEQVWKRDRKQRRQRPGHTPGNSNKWKHLQENKKGRNRRTHEFERAPRSV
notes: Semaphorin 3a (Sema3a), human; Commercial Fc fusion; no catalogue number; also called Sema3a-Ig; Semaphorin3a-hIgG1; source: bought: R&D systems
On to B1, for which the binding result in assay [2] is reported as “binds”.
